{
  "source": "patent US20080242601A1",
  "about": "(INSTITUTE PASTEUR, published 2008)",
  "molecules": {"B1": {"name": "CC2 (WT) (peptide)", "peptide": "Ac-SKGMQLEDLRQQLQQAEEALVAKQELIDKLKEEAEQHKIV-NH2", "notes": "Synthetic peptide; Forms a trimer by gel filtration at 10 uM; also called CC2 peptide; CC2 wild type"}},
  "key": {"[1]": {"biological_target": "T1, NEMO (NF-kB essential modulator), murine (murine, UniProt O88522 1-412)", "T1 chain": "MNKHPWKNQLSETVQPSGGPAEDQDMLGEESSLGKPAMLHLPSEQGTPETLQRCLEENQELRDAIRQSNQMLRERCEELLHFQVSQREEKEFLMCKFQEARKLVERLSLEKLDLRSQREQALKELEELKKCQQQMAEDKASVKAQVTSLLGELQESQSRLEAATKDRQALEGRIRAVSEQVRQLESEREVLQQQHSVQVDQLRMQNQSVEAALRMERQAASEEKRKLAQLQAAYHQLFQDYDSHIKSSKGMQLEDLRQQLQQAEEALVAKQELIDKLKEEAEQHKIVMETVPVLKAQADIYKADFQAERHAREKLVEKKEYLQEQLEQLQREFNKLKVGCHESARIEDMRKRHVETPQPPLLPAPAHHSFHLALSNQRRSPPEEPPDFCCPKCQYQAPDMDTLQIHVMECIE", "assay": "cell-based or functional assay"}, "[2]": {"biological_target": "T1, NEMO (NF-kB essential modulator), murine", "assay": "cell-based or functional assay"}, "[3]": {"biological_target": "the molecule itself", "assay": "gel filtration (Superdex 75) at 10 µM, self-association", "procedure": "The oligomeric states of peptides were determined by filtration as described in Traincard et al., 2003. In brief, 500 μl samples were loaded on a Superdex 75 HR 10/30 column equilibrated in 50 mM Tris-HCl pH 8.0 containing 200 mM NaCl and 0.1 mM DDM, at a constant flow rate of 0.4 ml/min. The presence of the DDM detergent was added in the equilibrium buffer to minimize the adsorption in the column and to increase the peptide recovery. The column was calibrated in the same equilibrium buffer with blue dextran 2000 (void volume), dithioerythritol (total volume), bovine serum albumin (67 kDa, Rs=35.2 Å), ovalbumine (43 kDa, Rs=27.5 Å), chymotrypsinogen A (25 kDa, Rs=21.1 Å), ribonuclease A (13.7 kDa, Rs=16.4 Å), cytochrome C (12.4 kDa, Rs=17.7 Å) and aprotinin (6.5 KDa, Rs=13.5 Å).\nThe antennapedia sequence is a protein transduction domain (PTD) which adopts an alpha-helical amphiphatic structure (Prochiantz, 2000, Curr. Opin. Cell Biol.). […] To examine the effect of N-fusion of the antennapedia peptide on the oligomerization properties of the CC2 and the LZ peptides, the present inventors analyzed peptides containing or not containing the antennapedia sequence at their N-terminus by gel filtration. […]"}, "CC2 (WT)": {"biological_target": "B1", "assay": "fluorescence anisotropy, fixed BODIPY-Ant-LZ (0.1 µM) with CC2", "procedure": "(A) Direct titration of BODIPY-Ant-CC2 (1 μM) with CC2 by fluorescence anitropy. The concentration of CC2 was determined by amino acid analysis. Anisotropy values of BODIPY-Ant-CC2 in milliunits (mA) were plotted against an increasing concentration of the CC2 peptide. […] The two dashed lines represent a stoichiometric titration and intersect at an CC2 concentration of 16 μM. Given the 1 μM concentration of the BODIPY-Ant-CC2, this gives a complex stoechiometrie of 0.8. (B) Direct titration of BODIPY-Ant-LZ (0.1 μM with CC2 by fluorescence anitropy. The anisotropy values of the BODIPY-Ant-LZ alone (white bar) or in the presence of the CC2 peptide (30 μM, grey bar; 100 μM, black bar) are given in milliunits (mA).\nAnisotropy measurements were performed with a PTI Quantamaster fluorometer equipped with polarizers for the excitation and emission beams. This instrument uses a PMT in the L-configuration. […] Steady-state fluorescence anisotropy was expressed as millianisotropy (mA) and was calculated according to the equations: (1) A=(I_VV-GIVH)/(IVV+2GIVH); (2) G=IHV/IHH.; where A is anisotropy, G is a correction factor for wavelength-dependent distortion and I is the fluorescence intensity component (subscript referring to the vertical and horizontal positioning at the excitation and emission polarizers, respectively). […]"}, "[4]": {"biological_target": "T1, NEMO (NF-kB essential modulator), murine", "assay": "cell-based or functional assay"}},
  "note": "Where two headings read alike, the source gives them in different places. * marks the point of attachment. BODIPYFLEthylmaleimide = Cc1cc(C)n2c1C=C1C=CC(CCC(=O)NCCN3C(=O)CC(*)C3=O)=[N+]1[B-]2(F)F",
  "data": [
    {"molecule": "BODIPY-Ant-CC2 (WT) (peptide)", "values": [
      {"measurement": "IC50 of inhibition of LPS-induced NF-κB activation (β-galactosidase reporter, 70Z3-C3 cells)", "setting": "[1]", "result": 22, "unit": "µM"},
      {"measurement": "fold reduction of LPS-induced NF-κB activation at 10 µM (stringent β-galactosidase assay)", "setting": "[1]", "result": 1.7, "unit": "fold"},
      {"measurement": "reduction of NF-κB activity at 20 µM after LPS stimulation of B lymphocytes", "setting": "[1]", "result": 70, "unit": "%"}
    ]},
    {"molecule": "Ac-C(BODIPYFLEthylmaleimide)RRRRRRRLKAQADIYKARFQAERHAREK-NH2 (SMILES CC[C@H](C)[C@H](NC(=O)[C@H](CC(=O)O)NC(=O)[C@H](C)NC(=O)[C@H](CCC(N)=O)NC(=O)[C@H](C)NC(=O)[C@H](CCCCN)NC(=O)[C@H](CC(C)C)NC(=O)[C@H](CCCNC(=N)N)NC(=O)[C@H](CCCNC(=N)N)NC(=O)[C@H](CCCNC(=N)N)NC(=O)[C@H](CCCNC(=N)N)NC(=O)[C@H](CCCNC(=N)N)NC(=O)[C@H](CCCNC(=N)N)NC(=O)[C@H](CCCNC(=N)N)NC(=O)[C@H](CSC1CC(=O)N(CCNC(=O)CCC2=[N+]3C(=Cc4c(C)cc(C)n4[B-]3(F)F)C=C2)C1=O)NC(C)=O)C(=O)N[C@@H](Cc1ccc(O)cc1)C(=O)N[C@@H](CCCCN)C(=O)N[C@@H](C)C(=O)N[C@@H](CCCNC(=N)N)C(=O)N[C@@H](Cc1ccccc1)C(=O)N[C@@H](CCC(N)=O)C(=O)N[C@@H](C)C(=O)N[C@@H](CCC(=O)O)C(=O)N[C@@H](CCCNC(=N)N)C(=O)N[C@@H](Cc1c[nH]cn1)C(=O)N[C@@H](C)C(=O)N[C@@H](CCCNC(=N)N)C(=O)N[C@@H](CCC(=O)O)C(=O)N[C@@H](CCCCN)C(N)=O)", "note": "[BODIPY-R7-NLM-DR]", "values": [
      {"measurement": "IC 50 (inhibition of NF-κB activation pathway)", "setting": "[2]", "result": 0.9, "unit": "µM"}
    ]},
    {"molecule": "Ac-C(BODIPYFLEthylmaleimide)RQIKIWFQNRRMKWKKLKAQADIYKARFQAERHAREK-NH2 (SMILES CC[C@H](C)[C@H](NC(=O)[C@H](CC(=O)O)NC(=O)[C@H](C)NC(=O)[C@H](CCC(N)=O)NC(=O)[C@H](C)NC(=O)[C@H](CCCCN)NC(=O)[C@H](CC(C)C)NC(=O)[C@H](CCCCN)NC(=O)[C@H](CCCCN)NC(=O)[C@H](Cc1c[nH]c2ccccc12)NC(=O)[C@H](CCCCN)NC(=O)[C@H](CCSC)NC(=O)[C@H](CCCNC(=N)N)NC(=O)[C@H](CCCNC(=N)N)NC(=O)[C@H](CC(N)=O)NC(=O)[C@H](CCC(N)=O)NC(=O)[C@H](Cc1ccccc1)NC(=O)[C@H](Cc1c[nH]c2ccccc12)NC(=O)[C@@H](NC(=O)[C@H](CCCCN)NC(=O)[C@@H](NC(=O)[C@H](CCC(N)=O)NC(=O)[C@H](CCCNC(=N)N)NC(=O)[C@H](CSC1CC(=O)N(CCNC(=O)CCC2=[N+]3C(=Cc4c(C)cc(C)n4[B-]3(F)F)C=C2)C1=O)NC(C)=O)[C@@H](C)CC)[C@@H](C)CC)C(=O)N[C@@H](Cc1ccc(O)cc1)C(=O)N[C@@H](CCCCN)C(=O)N[C@@H](C)C(=O)N[C@@H](CCCNC(=N)N)C(=O)N[C@@H](Cc1ccccc1)C(=O)N[C@@H](CCC(N)=O)C(=O)N[C@@H](C)C(=O)N[C@@H](CCC(=O)O)C(=O)N[C@@H](CCCNC(=N)N)C(=O)N[C@@H](Cc1c[nH]cn1)C(=O)N[C@@H](C)C(=O)N[C@@H](CCCNC(=N)N)C(=O)N[C@@H](CCC(=O)O)C(=O)N[C@@H](CCCCN)C(N)=O)", "note": "[BODIPY-Ant-NLM-DR]", "values": [
      {"measurement": "IC 50 (inhibition of NF-κB activation pathway)", "setting": "[2]", "result": 1.1, "unit": "µM"}
    ]},
    {"molecule": "B1", "values": [
      {"measurement": "binding result", "setting": "[3]", "result": "binds"}
    ]},
    {"molecule": "Ac-C(BODIPYFLEthylmaleimide)YGRKKRRQRRRLKAQADIYKARFQAERHAREK-NH2 (SMILES CC[C@H](C)[C@H](NC(=O)[C@H](CC(=O)O)NC(=O)[C@H](C)NC(=O)[C@H](CCC(N)=O)NC(=O)[C@H](C)NC(=O)[C@H](CCCCN)NC(=O)[C@H](CC(C)C)NC(=O)[C@H](CCCNC(=N)N)NC(=O)[C@H](CCCNC(=N)N)NC(=O)[C@H](CCCNC(=N)N)NC(=O)[C@H](CCC(N)=O)NC(=O)[C@H](CCCNC(=N)N)NC(=O)[C@H](CCCNC(=N)N)NC(=O)[C@H](CCCCN)NC(=O)[C@H](CCCCN)NC(=O)[C@H](CCCNC(=N)N)NC(=O)CNC(=O)[C@H](Cc1ccc(O)cc1)NC(=O)[C@H](CSC1CC(=O)N(CCNC(=O)CCC2=[N+]3C(=Cc4c(C)cc(C)n4[B-]3(F)F)C=C2)C1=O)NC(C)=O)C(=O)N[C@@H](Cc1ccc(O)cc1)C(=O)N[C@@H](CCCCN)C(=O)N[C@@H](C)C(=O)N[C@@H](CCCNC(=N)N)C(=O)N[C@@H](Cc1ccccc1)C(=O)N[C@@H](CCC(N)=O)C(=O)N[C@@H](C)C(=O)N[C@@H](CCC(=O)O)C(=O)N[C@@H](CCCNC(=N)N)C(=O)N[C@@H](Cc1c[nH]cn1)C(=O)N[C@@H](C)C(=O)N[C@@H](CCCNC(=N)N)C(=O)N[C@@H](CCC(=O)O)C(=O)N[C@@H](CCCCN)C(N)=O)", "note": "[BODIPY-TAT-NLM-DR]", "values": [
      {"measurement": "IC 50 (inhibition of NF-κB activation pathway)", "setting": "[2]", "result": 1, "unit": "µM"}
    ]},
    {"molecule": "BODIPY-Ant-LZ (WT) (Synthetic fusion peptide; also called cell permeable LZ) peptide: Ac-C(BODIPYFLEthylmaleimide)RQIKIWFQNRRMKWKKLKAQADIYKADFQAERHAREKLVEKKEYLQEQLEQLQREFNKL-NH2", "values": [
      {"measurement": "binding result", "setting": "CC2 (WT)", "result": "binds"},
      {"measurement": "IC50 of inhibition of LPS-induced NF-κB activation (β-galactosidase reporter, 70Z3-C3 cells)", "setting": "[4]", "result": 3, "unit": "µM"},
      {"measurement": "fold reduction of LPS-induced NF-κB activation at 10 µM (stringent β-galactosidase assay)", "setting": "[4]", "result": 5.8, "unit": "fold"}
    ]},
    {"molecule": "Ac-C(BODIPYFLEthylmaleimide)RRRRRRRRRLKAQADIYKARFQAERHAREK-NH2 (not fully specified)", "note": "[BODIPY-R9-NLM-DR]", "values": [
      {"measurement": "IC 50 (inhibition of NF-κB activation pathway)", "setting": "[2]", "result": 0.9, "unit": "µM"}
    ]}
  ]
}
